Measurements as given in publication PMC9363421.

Legend:
GFAT1 [1] = target: GFAT1 (UniProt Q06210); test: GST pull-down after in vitro kinase reaction; details: sites S438
GFAT1 [2] = target: GFAT1 (UniProt Q06210); test: co-immunoprecipitation of TAB1 mutants; details: reference: wild type; sites S438
GFAT1 [3] = target: GFAT1 (UniProt Q06210); test: His-TAB1 pull-down after JNK reaction; details: reference: His-TAB1 WT treated with JNK; sites S438

For “TAB1 (from UniProt Q15750) His-TAB1-S438A treated with p38α”, the “binding against the reference” value (GFAT1 [1]; reference: His-TAB1 WT treated with p38α) was “weaker”.

For TAB1 (from UniProt Q15750) S438A, the “binding against the reference” value (GFAT1 [2]) was “weaker”.

For “TAB1 (from UniProt Q15750) His-TAB1-S438A treated with JNK”, the “binding against the reference” value (GFAT1 [3]) was “weaker”.

With “TAB1 (from UniProt Q15750) His-TAB1-S438A treated with JNK1” the “binding against the reference” value (GFAT1 [1]; reference: His-TAB1 WT treated with JNK1) was “weaker”.
